Where two headings read alike, the source gives them in different places.
Columns and labels:
WT-sFasL [1] = biological target: T1, WT-sFasL (Homo sapiens, UniProt P48023); assay: Attenuation of WT-sFasL-induced caspase 3/7 activity in murine lung epithelial cells (LA4); type: cell-based, mouse
T1 construct: made in house
T1 sequence (P48023 103-281): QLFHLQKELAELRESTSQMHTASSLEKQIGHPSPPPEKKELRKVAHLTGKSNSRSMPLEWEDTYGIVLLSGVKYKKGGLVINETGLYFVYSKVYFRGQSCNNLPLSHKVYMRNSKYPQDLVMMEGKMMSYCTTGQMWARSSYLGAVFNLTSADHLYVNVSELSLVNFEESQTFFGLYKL
Experimental: (§1) FIGS. 2A-D show the mut-sFasL has inhibitory properties. Highly Fas-sensitive Jurkat cells (FIG. 2A), primary human lung small airway epithelial cells (SAEC, FIG. 2B) or murine lung epithelial cells (LA4, FIG. 2D) were incubated with serial dilutions of mutated FasL, (mut sFasL). […] As a confirmatory test, the experiment was repeated using SAEC and an annexin-V translocation assay (FIG. 2C). WT=wild type (no mutant). […] Each dot represents individual data; lines represent means±SD. *=P<0.05; **=P<0.01, ***P<0.001 when compared to WT. One way ANOVA with SIdak's post hoc analysis.
Mouse lung epithelial LA-4 cells were obtained from ATCC (catalogue number CCL-196, lot number 3404534). This cell line is derived from a A/He mouse lung adenoma (Stoner G, et al. Cancer Res. 1975; 35(8):2177-85). […]
(§2) Measurements of apoptotic cascade activation. Apoptotic cascade activation was assessed by determining caspase 3/7 activity and Annexin V externalization. Caspase-3/7 activity was measured using a commercial substrate (Caspase-Glo 3/7 Assay, Promega, Madison, Wis., Cat #G8090) following manufacturer's instructions. Annexin V was measured with a luminescent commercial assay that allows for measurement of annexin V externalization in adherent cells (RealTime-Glo Annexin V assay, Promega, Madison, Wis., Cat #JA1011). Luminescence was measured with a Synergy H4 Microplate Reader (BioTek, Winooski, Vt.). […]

recombinant human Fas = biological target: T2, recombinant human Fas (Homo sapiens, UniProt P25445); assay: Competition assay: binding of biotinylated WT sFasL to plate-coated recombinant human Fas; details: biotinylated WT-sFasL 70 ng/mL, Fas coated at 250 ng/mL, serial 3-fold dilutions
T2 construct: recombinant human soluble Fas receptors (PeproTech, Rocky Hill, N.J.); purchased PeproTech
T2 sequence (P25445 26-173 limits assumed): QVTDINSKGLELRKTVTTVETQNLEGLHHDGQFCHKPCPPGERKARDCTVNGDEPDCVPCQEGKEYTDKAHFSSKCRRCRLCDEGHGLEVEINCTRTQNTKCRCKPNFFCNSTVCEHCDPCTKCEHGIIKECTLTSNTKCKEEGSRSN
Experimental: The mixtures were incubated for 2 hours in 96-well plates pre-coated with recombinant hsFas (250 ng/ml). After washing unbound material, biotin was detected using HRP conjugated Streptavidin. […] The sFasL bound to Fas was detected using polyclonal anti-human FasL antibodies. […] Different molar ratios of the Fas-activating antibody CH-11 and mut-sFasL were added, and caspase 3/7 activity measured after 5 hours. […] Data represent the results from three separate experiments, each done in duplicate, and were analyzed by 2-way ANOVA with Sidak's post hoc analysis. […] Each dot represents individual data; lines represent means±SD. *=P<0.05; **=P<0.01, ***P<0.001.
Antibodies and Reagents. […] FLAG tagged mut-sFasL was detected using HRP anti-FLAG monoclonal antibody (Sigma-Aldrich, Cat #A85920). […]
WT-sFasL inhibition occurs prior to receptor binding. […] Recombinant human Fas at 250 ng/mL were coated and the binding of a fixed concentration of biotinylated WT-sFasL (70 ng/mL) were measured in the presence of serial 3-fold dilutions of either WT-sFasL or mut-sFasL. […] Serial dilutions of either WT-sFasL or mut-sFasL were incubated in wells coated with recombinant human Fas, 5 μg/mL, and after washing, detected sFasL bound to Fas using polyclonal anti-FasL antibodies. […]

WT-sFasL [2] = biological target: T1, WT-sFasL; assay: Attenuation of WT-sFasL-induced caspase 3/7 activity in primary human small airway epithelial cells (SAEC); type: cell-based; details: for inhibitory effect on ability of WT-sFasL to induce caspase 3-7 activity: at higher molar ratios than in Jurkat
Experimental: as §1
Small airway epithelial cells (SAEC) are primary human cells isolated from the 1-mm bronchiole area of normal human lung tissue, and were purchased from Lonza (Walkersville, Md., catalogue number CC-2547, lot number 0000669507). Cells used came from a single donor and confirmed mycoplasma-free by the vendor. Cells were grown at 37° C., 5% CO2 in small airway epithelial basal medium (SAGM, Lonza, Cat #CC-3119 CC-3119) supplemented with SAGM SingleQuots (Lonza, catalogue number CC-4124), and used between passages 2 and 4.
Measurements of apoptotic cascade activation. Apoptotic cascade activation was assessed by determining caspase 3/7 activity and Annexin V externalization. Caspase-3/7 activity was measured using a commercial substrate (Caspase-Glo 3/7 Assay, Promega, Madison, Wis., Cat #G8090) following manufacturer's instructions. Annexin V was measured with a luminescent commercial assay that allows for measurement of annexin V externalization in adherent cells (RealTime-Glo Annexin V assay, Promega, Madison, Wis., Cat #JA1011). Luminescence was measured with a Synergy H4 Microplate Reader (BioTek, Winooski, Vt.).
The mut-sFasL attenuates the activity of WT-sFasL. Then, the caspase 3/7 activity of Jurkat cells incubated with different molar ratios of WT and mut-sFasL was investigated. […] The molar mixtures on primary human small airway epithelial cells (SAEC) were tested. These cells are commercially isolated from the distal airways of human lungs. […]

WT-sFasL [3] = biological target: T1, WT-sFasL; assay: Annexin-V externalization (translocation) assay in SAEC with WT:mut sFasL mixtures; type: cell-based; details: WT:mut sFasL molar ratios of 1:27 and 1:81
Experimental: as §1, with “analysis. […]” for “analysis.”
as §2

B1: mut-sFasL: mutant sFasL molecule in which 8 charged amino acids in the 26 amino acid stalk region were changed to alanine (protein)
chain: QLFALQAALAALAASTSQMATASSLAKQIGHPSPPPEKKELRKVAHLTGKSNSRSMPLEWEDTYGIVLLSGVKYKKGGLVINETGLYFVYSKVYFRGQSCNNLPLSHKVYMRNSKYPQDLVMMEGKMMSYCTTGQMWARSSYLGAVFNLTSADHLYVNVSELSLVNFEESQTFFGLYKL
Question: What does the source list for B1?
Answer: inhibition of WT-sFasL-induced caspase 3-7 activity (WT-sFasL [1]): inhibited the ability of WT-sFasL to induce caspase 3-7 activity; inhibition of WT-sFasL-induced caspase 3-7 activity (WT-sFasL [1]; listed as 8-mutant protein): an inhibitory effect of the 8-mutant protein was detected; effect of increasing competitor concentration on binding of biotinylated WT-sFasL to Fas (recombinant human Fas): little effect on binding of biotinylated WT-sFasL, except at very high doses; caspase 3/7 activity (WT-sFasL [2]; WT:mut sFasL molar ratios of 1:27 and 1:81): significantly reduced caspase 3/7 activity; inhibitory effect on ability of WT-sFasL to induce caspase 3-7 activity (WT-sFasL [2]): inhibitory effect; inhibitory effect on ability of WT-sFasL to induce caspase 3-7 activity (WT-sFasL [2]; listed as 8-mutant protein): an inhibitory effect of the 8-mutant protein was detected; Annexin V translocation (WT-sFasL [3]): significantly reduced

— patent US20220002363A1, “COMPOSITIONS AND METHODS FOR TREATING PULMONARY DISEASE” (United States Government As Represented By The Department …, priority 2020, published 2022)
